Earlier results as cited in article PMC4298871.

Biological target: M6P/IGF-IIR (Homo sapiens) (UniProt P11717)
Test: SPR

Chain of UniProt P11717 (P11717 41-2491): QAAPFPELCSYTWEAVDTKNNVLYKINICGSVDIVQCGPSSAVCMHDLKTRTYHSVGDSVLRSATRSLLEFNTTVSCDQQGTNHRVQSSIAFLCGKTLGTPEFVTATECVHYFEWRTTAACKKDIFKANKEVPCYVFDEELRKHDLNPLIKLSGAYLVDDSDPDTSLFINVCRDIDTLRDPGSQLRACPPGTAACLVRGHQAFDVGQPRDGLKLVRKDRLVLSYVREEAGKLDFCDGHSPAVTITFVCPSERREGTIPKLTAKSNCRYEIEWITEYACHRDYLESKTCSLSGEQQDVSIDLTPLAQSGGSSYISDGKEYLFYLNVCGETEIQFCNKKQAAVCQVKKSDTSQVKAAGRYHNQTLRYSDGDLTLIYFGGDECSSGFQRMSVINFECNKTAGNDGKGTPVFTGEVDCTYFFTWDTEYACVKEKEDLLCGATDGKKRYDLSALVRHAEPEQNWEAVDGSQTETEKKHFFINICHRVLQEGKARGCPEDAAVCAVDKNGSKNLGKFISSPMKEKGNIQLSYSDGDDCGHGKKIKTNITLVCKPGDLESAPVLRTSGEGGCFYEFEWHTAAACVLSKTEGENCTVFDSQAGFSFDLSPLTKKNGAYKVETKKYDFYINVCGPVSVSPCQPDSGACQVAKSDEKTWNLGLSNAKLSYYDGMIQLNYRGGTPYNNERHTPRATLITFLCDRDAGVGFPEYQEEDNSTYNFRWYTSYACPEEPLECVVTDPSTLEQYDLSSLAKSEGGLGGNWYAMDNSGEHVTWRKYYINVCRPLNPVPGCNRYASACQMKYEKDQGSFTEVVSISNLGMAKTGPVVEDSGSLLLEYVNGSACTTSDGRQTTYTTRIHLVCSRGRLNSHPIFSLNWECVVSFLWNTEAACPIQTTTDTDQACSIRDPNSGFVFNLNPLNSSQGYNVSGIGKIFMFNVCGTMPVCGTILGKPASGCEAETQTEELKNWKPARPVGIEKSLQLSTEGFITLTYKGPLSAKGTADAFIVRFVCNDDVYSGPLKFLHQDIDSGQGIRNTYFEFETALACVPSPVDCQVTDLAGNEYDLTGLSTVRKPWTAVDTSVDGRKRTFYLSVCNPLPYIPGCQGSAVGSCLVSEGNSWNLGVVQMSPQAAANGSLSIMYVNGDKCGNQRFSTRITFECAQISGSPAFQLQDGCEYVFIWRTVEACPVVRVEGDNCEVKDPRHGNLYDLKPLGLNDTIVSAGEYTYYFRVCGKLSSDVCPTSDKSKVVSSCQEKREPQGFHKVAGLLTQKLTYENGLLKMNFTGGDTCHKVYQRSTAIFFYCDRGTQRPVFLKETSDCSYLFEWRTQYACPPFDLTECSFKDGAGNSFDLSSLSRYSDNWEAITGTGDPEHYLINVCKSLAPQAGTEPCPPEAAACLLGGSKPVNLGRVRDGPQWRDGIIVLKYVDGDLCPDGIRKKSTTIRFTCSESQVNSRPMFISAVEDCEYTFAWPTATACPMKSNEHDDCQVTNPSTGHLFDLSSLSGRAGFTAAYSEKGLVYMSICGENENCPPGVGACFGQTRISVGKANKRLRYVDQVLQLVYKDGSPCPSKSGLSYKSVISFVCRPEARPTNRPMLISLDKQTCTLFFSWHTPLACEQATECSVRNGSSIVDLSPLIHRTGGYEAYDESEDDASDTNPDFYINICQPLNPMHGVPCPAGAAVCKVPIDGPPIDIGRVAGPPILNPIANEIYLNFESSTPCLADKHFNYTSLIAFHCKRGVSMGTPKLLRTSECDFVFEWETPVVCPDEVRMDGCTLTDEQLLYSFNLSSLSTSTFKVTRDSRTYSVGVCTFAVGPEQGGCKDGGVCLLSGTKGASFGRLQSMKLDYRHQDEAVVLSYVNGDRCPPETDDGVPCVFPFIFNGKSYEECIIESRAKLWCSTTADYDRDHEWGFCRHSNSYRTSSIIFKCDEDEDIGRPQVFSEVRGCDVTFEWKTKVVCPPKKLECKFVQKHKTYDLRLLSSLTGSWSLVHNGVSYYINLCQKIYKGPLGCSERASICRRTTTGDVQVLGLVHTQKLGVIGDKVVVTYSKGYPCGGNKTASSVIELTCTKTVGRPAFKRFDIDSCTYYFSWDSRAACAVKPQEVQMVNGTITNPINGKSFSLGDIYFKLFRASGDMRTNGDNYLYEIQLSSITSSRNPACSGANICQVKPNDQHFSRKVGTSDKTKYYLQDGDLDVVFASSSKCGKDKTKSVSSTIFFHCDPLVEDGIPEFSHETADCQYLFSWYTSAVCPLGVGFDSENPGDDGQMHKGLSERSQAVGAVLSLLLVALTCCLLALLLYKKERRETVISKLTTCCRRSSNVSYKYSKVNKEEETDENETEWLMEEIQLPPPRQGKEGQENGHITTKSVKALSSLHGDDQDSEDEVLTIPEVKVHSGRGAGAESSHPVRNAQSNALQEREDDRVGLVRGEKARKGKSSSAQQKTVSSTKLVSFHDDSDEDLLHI

Kd: 35.9 µM
Substance: DPP-4 (from UniProt P27487)
